The test system of this series is MS2 coat protein. As to the kind of experiment: apparent KD of MS2 coat protein; designed switch direction (-1 OFF switch, 1 ON switch): -1; higher = weaker reporter binding. The method, boiled down:
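RNA switches sharing common flanks were transcribed by stalled E. coli RNA polymerase on Illumina chips. A doubling series of SNAP-549-labelled MS2 coat protein, from 0.7 or 1.5 nM to 3 µM, was applied in Tris-HCl pH 7.5 buffer with KCl, MgCl2, BSA, DTT, tRNA and Tween-20. Each step lasted 0.8–1.5 h at the bottom of the series and 10–20 min at the top. Normalised cluster fluorescence was curve-fitted, giving apparent KD as the per-design median over clusters.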

Where [1] appears, read: Eterna round: R95, input ligand: microRNA oligo, concentration not stated.
The mark [2] stands for this setting: input ligand: microRNA oligo, concentration not stated.

For “AAAAGUUUGGAGGAUAUCCAUCCAAACGGAUAAGGAGAAGGCCGGACAUGAGGAUCACCCAUGUGAUUAGGUUA [Isradiri] (puzzle: Exclusion 6)”, the “apparent KD of MS2 coat protein” value under setting [1] worked out at 13.4 nM.
With “AUGAGCAGACGGAGAUCCAACAUGAGGAUCACCCAUGUCUCAUAAGCUUUUUGUUCAUCUUAUUGUACCUUGGUGCA [Mat - Sensor v3 - turn-off var 1 - JL Mod - D25] (Eterna round: R96, puzzle: Sensor v3, turn-off variant 1)”, the “apparent KD of MS2 coat protein” value by setting is: (input ligand: FMN 200 uM) 242 nM; under setting [2], 25.4 nM; (input ligand: none) 198 nM.
As for “CCGGAAAUGCAGGAUAUCGUAUCGGAAACGAUACGAGAAGGGUAUACAUGAGGAUCACCCAUGUGUCCUACCGG [Fiskers Ex 6 - 21] (puzzle: Exclusion 6)”, the “apparent KD of MS2 coat protein” value under setting [1] turned out to be 20.6 nM.
“UUCUUUACACGAGGAUAUCAUACAUGAGGAUCACCCAUGUUGCUUUGUCUGUUUUUAUGUAUUAUUGAGAAGGCGUUUUUCUUU [JR_ExcNG2_Sub076] (Eterna round: R96, puzzle: Exclusion NG 2)”: the “apparent KD of MS2 coat protein” value worked out at 21.9 nM (input ligand: FMN 200 uM), 19.7 nM under setting [2] and 23.7 nM (input ligand: none).
For the sequence “GAUUGACAUGAGGAUCACCCAUGUGAGGAUAUCGGCCGGACCUUGUUAGCUUCCACCGCGAGAAGGCACAUCGG [Exclusion 1 V30] (puzzle: Exclusion 1)”, the “apparent KD of MS2 coat protein” value under setting [1] worked out at 17 nM.
As to “AAGAAUUUAUAGGAUAUCGAAAGUAUAAUUUAACGAGAAGGAUGAACAUGAGGAUCACCCAUGUGGUAUCAUGG [JL-ex6-3.09] (puzzle: Exclusion 6)”, the “apparent KD of MS2 coat protein” value runs as follows: (Eterna round: R95, input ligand: FMN 200 uM) 145 nM; under setting [1], 232 nM; (Eterna round: R95, input ligand: none) 304 nM.
In the case of “GUCAUCAAACAUGGGAUCAACAUGAGGAUCACCCAUGUUGACAAGUUUUUUGCUCGUCUUAUAAUAAGUUUGAUGAC [Antenna 9 - Jieux - Sensor, turn-off variant 1] (Eterna round: R97, puzzle: Sensor, turn-off variant 1)”, the “apparent KD of MS2 coat protein” value reads like this: (input ligand: FMN 200 uM) 15.5 nM; (input ligand: none) 16.2 nM.
Turning to “CUUAGACAUGAGGAUCACCCAUGUGAGGAUAUGAUGCGAUCGUGCUGACAUGAUCGCAUCAGAAGGCACAUAUG [JL-ex1-01 Hyphema Mod2] (Eterna round: R96, puzzle: Exclusion 1)”, the “apparent KD of MS2 coat protein” value by setting is: (input ligand: FMN 200 uM) 242 nM; under setting [2], 101 nM; (input ligand: none) 115 nM.
Take “CCACUGUCAGGAUAUCGUGCAUAACGUUUACAUUUUAUGUGCGAGAAGGGACAUGAGGAUCACCCAUGUAAACG [Omei Ex4 A28PK2] (Eterna round: R97, puzzle: Exclusion 4)”: the “apparent KD of MS2 coat protein” value is 206 nM (input ligand: FMN 200 uM) and 808 nM (input ligand: none).
On the same counts, the results for “AAUCUGCCGUAGGAUAUCUGAAGUUUAUAUAUAAGAGAAGGACGGACAUGAGGAUCACCCAUGUACGAUCCUGC [EX6 B.24] (Eterna round: R97, puzzle: Exclusion 6)” are 19.9 nM and 11.5 nM.
For “CUUUCGUGAGGAUAUGUGGCUUCGAAAGUGAGAUCGAGGCUACAGAAGGCACAUGAGGAUCACCCAUGUUCCUC [salish99_ex4_r4_214] (Eterna round: R97, puzzle: Exclusion 4)”, in that order: 371 nM and 28.2 nM.
For the sequence “ACCCAACAUGAGGAUCACCCAUGUCAGGAUAUCCAUCUAUACUCGAAAGAGUAUAGAUGGAGAAGGGACAGAGG [ChP 04-04-2015 #4] (puzzle: Exclusion 1)”, the “apparent KD of MS2 coat protein” value under setting [1] amounted to 104 nM.
Same read-out and setting: next, “CUUAGACAUGAGGAUCACCCAUGUGAGGAUAUGAUGCGAUCGUGCUGACAUGAUCGCAUCAGAAGGCACAUAUG [JL-ex1-01 Hyphema Mod2] (puzzle: Exclusion 1)”: 120 nM.

The values are drawn from the supplement of paper PMC9170038.
